{"source": "paper PMC5422739", "about": "“Leptospira Immunoglobulin-Like Protein B Interacts with the 20th Exon of Human Tropoelastin Contributing to Leptospiral Adhesion to Human Lung Cells” (Frontiers in Cellular and Infection Microbiology, 2017)", "binders": {"B1": {"name": "HTE17-20 (17th to 20th exon of human tropoelastin) (domain or fragment)", "chain": "GVGTPAAAAAAAAAAKAAKYGAAAGLVPGGPGFGPGVVGVPGAGVPGVGVPGAGIPVVPGAGIPGAAVPGVVSPEAAAKAAAKAAKYGARPGVGVGGIPTYGVGAGGFPGFGVGVGGIPGVAGVPGVGGVPGVGGVPGVGIS"}}, "conditions_in_all_cases": "both partners purified", "key": {"[1]": {"target": "T1, GST tagged LigB12 (amino acids 1,047–1,119 in LigB) (L. interrogans serovar Pomona)", "T1 construct": "LigB, 12th Ig-like domain, amino acids 1,047–1,119 in LigB; constructed into pGEX-6P-1 and pGEX-4T-2; also called GST-LigB12; 12th domain of LigB; source: E. coli Rosetta, purified (glutathione agarose)", "test": "ELISA; HTE17-20, HTE20, HTE20N, HTE20C or BSA coated (1 μM/well); GST tagged LigB4 or LigB12 titrated 0 to 10 μM, 1 h at 37°C; HRP anti-GST; KD from a saturation fit of OD630"}, "[2]": {"target": "T2, GST tagged LigB4 (amino acids 307–403 in LigB) (L. interrogans serovar Pomona)", "T2 construct": "Leptospira immunoglobulin-like protein B (LigB), 4th Ig-like domain, amino acids 307–403 in LigB; constructed into pGEX-6P-1 and pGEX-4T-2; also called GST-LigB4; 4th domain of LigB; source: E. coli Rosetta, purified (glutathione agarose)", "test": "ELISA; HTE17-20, HTE20, HTE20N, HTE20C or BSA coated (1 μM/well); GST tagged LigB4 or LigB12 titrated 0 to 10 μM, 1 h at 37°C; HRP anti-GST; KD from a saturation fit of OD630"}, "[3]": {"target": "T3, tag free LigB12 (amino acids 1,047–1,119 in LigB) (L. interrogans serovar Pomona)", "T3 construct": "LigB, 12th Ig-like domain, amino acids 1,047–1,119 in LigB; from pET28-SUMO; also called wild-type LigB12; LigB12 WT; source: E. coli Rosetta, purified (Ni-NTA, Ulp-1 digestion, second Ni-NTA, size exclusion)", "test": "SPR; Biacore 3000; tag free LigB12 immobilised on CM5 (about 1,000 RU); HTE truncates 0 to 5 μM injected in PBS at 30 μL/min, 25°C; 1:1 Langmuir model"}}, "data": [{"binder": "B1", "values": [{"measurement": "Kd", "setting": "[1]", "value": 780, "unit": "nM"}, {"measurement": "Kd", "setting": "[2]", "value": 780, "unit": "nM"}, {"measurement": "Kd", "setting": "[3]", "value": 850, "unit": "nM"}, {"measurement": "koff", "setting": "[3]", "value": 0.0011, "unit": "s⁻¹"}, {"measurement": "kon", "setting": "[3]", "value": 1300, "unit": "M⁻¹ s⁻¹"}]}]}
